{
  "source": "patent US20030119733A1",
  "about": "“Compositions and methods for inhibiting hepatocyte invasion by malarial sporozoites” (New York University, priority 1992, published 2003)",
  "molecules": {"B1": {"name": "Falciparum-1: Same as Falciparum-2 minus most of Region II+ (P. falciparum residues 43-348) (protein)", "chain": "AGTNLYNELEMNYYGKQENWYSLKKNSRSLGENDDGNNNNGDNGREGKDEDKRDGNNEDNEKLRKPKHKKLKQPGDGNPDPNANPNVDPNANPNVDPNANPNVDPNANPNANPNANPNANPNANPNANPNANPNANPNANPNANPNANPNANPNANPNANPNANPNVDPNANPNANPNANPNANPNANPNANPNANPNANPNANPNANPNANPNANPNANPNANPNANPNANPNANPNANPNANPNKNNQGNGQGHNMPNDPNRNVDENANANNAVKNNNNEEPSDKHIEQYLKKIKNSISTEWSP"}, "B2": {"name": "Falciparum-2: fragment of P. falciparum CS protein with repeats and Region II+ (residues 43-391) (protein)", "chain": "AGTNLYNELEMNYYGKQENWYSLKKNSRSLGENDDGNNNNGDNGREGKDEDKRDGNNEDNEKLRKPKHKKLKQPGDGNPDPNANPNVDPNANPNVDPNANPNVDPNANPNANPNANPNANPNANPNANPNANPNANPNANPNANPNANPNANPNANPNANPNANPNVDPNANPNANPNANPNANPNANPNANPNANPNANPNANPNANPNANPNANPNANPNANPNANPNANPNANPNANPNANPNKNNQGNGQGHNMPNDPNRNVDENANANNAVKNNNNEEPSDKHIEQYLKKIKNSISTEWSPCSVTCGNGIQVRIKPGSANKPKDELDYENDIEKKICKMEKCSS"}},
  "key": {"[1]": {"assay": "Solid phase binding assay, sulfatide", "conditions": "lipid dried into microtiter wells", "experimental": "(§1) Solid phase binding assays: Thirty μl of lipids or steroids dissolved in methanol (20-250 μg/ml) were dried into wells of microassay plates (Cat.# 3911—Falcon—Oxnard, Calif.). The plates were then blocked with 1% BSA/PBS pH 7.4 (BSA/PBS) for 30 minutes. Wells were incubated with recombinant protein (or with parasite extract) in PBS/BSA for 1 hour, washed 3 times with BSA/PBS, incubated for 1 hour with monoclonal antibodies 2F2 or 2A10 in BSA/PBS, washed 3 times, and then incubated with (10^5 cpm/well) ^125I protein A (Amersham Corp., Arlington Hts., Ill.). In the case of the P. berghei CS protein, wells were incubated with ^125I labelled mAb 3D11. Wells were washed again and the bound radioactive protein was counted in an LKB gamma-counter (model #1260, Pharmacia, Inc., Gaithersburg, Md.). For inhibition assays, the recombinant proteins were mixed with dilutions of the various polymers in BSA/PBS, the mixture was loaded into the wells of the microtiter plates, and the binding assay performed as above. See also, Roberts, et al. J. Biol. Chem. 260:9405-9411, 1985.\n(§2) 1.4 nmol of sulfatide (open squares), cholesterol-3-sulfate (closed triangles), galactocerebroside I (closed circles), galactocerebroside II (open circles) and cholesterol (open triangles) were evaporated into microtiter wells and then incubated with serial dilutions of Vivax-2. […]"}, "[2]": {"assay": "Localization in organs after intravenous injection (light and electron microscopy)", "type": "in vivo, mouse", "conditions": "100 μg i.v., 5 minutes", "experimental": "In other experiments, light and electron microscopy were used to localize CS in the various organs. The mice were injected i.v. with 100 μg of unlabeled CS27IVC or Falc-1 via the retroorbital plexus. The mice were exsanguinated five minutes after injection, the organs removed, rinsed in TBS, blotted dry, and then snap frozen in liquid nitrogen for light microscopy. For electron microscopy, the organs were cut into small pieces and fixed in a mixture of 0.1% glutaraldehyde and 4% paraformaldehyde.\nLight Microscopy: The frozen tissue was embedded in Tissue Tek O.C.T. (Miles Inc., Naperville, Ill.) and cut into 5 μm sections. Sections were dried for 30 minutes, fixed for 10 minutes in 4% paraformaldehyde, and either used immediately or stored at 4° C. in PBS containing 1% BSA, 0.5% Tween-20. After blocking with the same buffer, the sections were incubated with mAb 2A10 conjugated to FITC, and examined in a fluorescence microscope.\nElectron Microscopy: The fixed liver specimens were dehydrated in ethanol and embedded in Lowicryl K4M at −20° C. (Frevert et al., Infect. and Immun. 80:2349 (1992)). After UV polymerization, sections were cut with a RMC MT-7 ultramicrotome and stained by sequential incubation with 15 μg/ml mAb 2A10 and protein A gold 10 nm (PAG10) (1:30, Amersham, Arlington, Ill.). Cerami et al., Cell 70:1021 (1992). Control sections were strained only with the gold conjugate. […]"}, "[3]": {"assay": "Solid phase binding assay, cholesterol-3-sulfate", "conditions": "steroid dried into microtiter wells", "experimental": "as §1, §2"}, "liver membranes": {"system": "liver membranes", "assay": "Binding activity of aggregated and monomeric FPLC fractions", "conditions": "aggregated form", "experimental": "To separate monomers from multimers of recombinant CS, the preparations were subjected to molecular sieving chromatography on an FPLC apparatus (Pharmacia, Piscataway, N.J.). One hundred micrograms of CS27IVC in a phosphate buffer containing 150 mM NaCl (pH 7.2) was injected into a Superose 12 sizing column (Pharmacia). The protein was eluted in the same buffer using a flow rate of 0.2 ml/min. A high molecular weight fraction ([…]) co-eluted with thyroglobulin. The monomeric form of the protein eluted between amylase (molecular weight=200 kDa) and BSA (molecular weight=66kDa).\nThe methods described by Lambert, J. M. et al., Biochemistry 17:5406-5416, 1978 were followed. Falciparum-1 at a concentration of 1 mg/ml was incubated with 250 mM Traut's reagent (Pierce Chemical Co., Rockford, Ill.) in 50 mM triethylamine-hydrochloric acid (TEA-HCl) (pH 8.0), 1 mM Mg(Ac)2, and 50 mM KCl for 20 min. on ice. Traut's reagent (0.5 M stock) was prepared immediately before use in a solution containing equal volumes of 1 M TEA-HCl and 1 M TEA-free base. The sulfhydryl-containing falciparum-1 was oxidized in ambient air at 4° C. overnight. The presence of aggregated disulfide-linked falciparum-1 was confirmed both by chromatography in an FPLC sizing column and by Western blotting as described above.\nThe gold conjugates employed in the foregoing liver section experiments contained no aggregates. […]"}, "[4]": {"assay": "Solid phase binding assay, analogues of sulfatide and cholesterol-3-sulfate", "conditions": "dried into microtiter wells", "experimental": "as §1, §2"}},
  "data": [
    {"molecule": "B1", "values": [
      {"measurement": "binding to sulfatide", "setting": "[1]", "result": "did not bind"},
      {"measurement": "staining of kidney or other organs with FITC-labeled mAb 2A10", "setting": "[2]", "result": "No staining"},
      {"measurement": "staining of liver with FITC-labeled mAb 2A10", "setting": "[2]", "result": "No staining"},
      {"measurement": "binding to cholesterol-3-sulfate", "setting": "[3]", "result": "did not bind"},
      {"measurement": "binding activity", "setting": "liver membranes", "result": "inactive"}
    ]},
    {"molecule": "B2", "values": [
      {"measurement": "binding to sulfatide", "setting": "[1]", "result": "specifically bound sulfatide"},
      {"measurement": "binding to analogues (gangliosides, galactocerebrosides I and II, cholesterol, other steroids)", "setting": "[4]", "result": "not"},
      {"measurement": "binding to cholesterol-3-sulfate", "setting": "[3]", "result": "bind"}
    ]}
  ]
}
